T1: Solute carrier organic anion transporter family member 1A2 (Homo sapiens, UniProt P46721)
T1 sequence (P46721 whole entry): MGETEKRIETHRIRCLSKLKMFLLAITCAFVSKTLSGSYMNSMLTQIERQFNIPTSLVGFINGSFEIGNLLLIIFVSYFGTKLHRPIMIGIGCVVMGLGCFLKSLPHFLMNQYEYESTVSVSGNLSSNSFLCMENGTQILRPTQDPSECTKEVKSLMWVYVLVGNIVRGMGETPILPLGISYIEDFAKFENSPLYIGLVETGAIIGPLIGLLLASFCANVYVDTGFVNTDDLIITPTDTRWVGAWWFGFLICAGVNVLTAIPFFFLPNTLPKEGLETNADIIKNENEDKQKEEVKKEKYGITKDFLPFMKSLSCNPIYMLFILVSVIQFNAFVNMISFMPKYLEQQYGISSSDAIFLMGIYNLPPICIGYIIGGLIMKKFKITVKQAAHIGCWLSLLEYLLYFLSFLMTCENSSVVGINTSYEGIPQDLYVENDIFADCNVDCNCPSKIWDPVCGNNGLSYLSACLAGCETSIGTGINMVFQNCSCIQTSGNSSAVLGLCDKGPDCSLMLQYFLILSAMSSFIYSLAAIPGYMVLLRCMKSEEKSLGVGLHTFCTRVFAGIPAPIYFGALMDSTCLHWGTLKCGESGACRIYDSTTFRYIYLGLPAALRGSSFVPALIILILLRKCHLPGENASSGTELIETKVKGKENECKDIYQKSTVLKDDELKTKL

T2: OATP1A2 (Homo sapiens, UniProt P46721)
T2 sequence (P46721 whole entry): T1 sequence (P46721 whole entry)

B1: Solute carrier organic anion transporter family member (Bos taurus) (protein)
chain: MGETEERIETHRIRCLSKLKMFLLAITCAFVSKTLSGSYMNSMITQIERQFNIPTSLVGFINGSFEIGNLLLIIFVSYFGTKLHRPIMIGVGCVVMGLGCFLQSLPHFLMGRYEYESTVSVSGNLSSNSFLCMENGTQIFKPTKDPSECVKEVKSLMWVYVLVGNIIRGIGETPIMPLGISYIEDFAKFENSPLYIGLIKTGGIIGPLIGLSLASFCANVYVDTESVNTDDLTITPSDTRWVGAWWIGFLICAGVNVLTAIPFFFLPKTLPKEGLEENAEIIKNDKEKQEDIKKKRDAITKDFLPFMKSLLCNPIYMLFILISVLQFNAFVSMVSFMPKYMEQHYGKSASEAIFLLGIYNFPPICIGYIVGGLFMKKFKITAVQAAHIGCWLSFTEYLLHFLCFFMICDSSSVAGLTTSYEGIHQNLRVKNFLADCNMDCNCPTKVWDPVCGNNGLSYTSACLAGCEISSGTGRKMVFQNCSCIQTPGNSSAVLGLCDKGKDCSMMLQYFLILSVFSSFIFSLSAIPGYMVLLRCVKPEEKSLGVGLHAFCTRVLAGIPAPIYFGALVDSTCLHWGTLKCGESGACRIYDSNSFRYIYLGIPAALRGSSYIPAFLILFILRKYRLPGENASSETMLVAKFTGKENEGKEMDQNAKVLNDDELKTKL

Experiments:
[1] = biological target: T1, Solute carrier organic anion transporter family member 1A2; test: (§1) Cellular uptake in HEK293 cells assessed as human OATP1A2-mediated drug uptake at 0.05 uM after 1 min by Eadie-Hofstee plot analysis; format: ADME, cell-based; conditions: hek293, 1 min, 0.05 µM
OATP1A2 [2] = biological target: T2, OATP1A2; test: as §1; format: ADME, cell-based; conditions: HEK293 cells expressing human OATP1A2
OATP1A2 [3] = biological target: T2, OATP1A2; test: Cellular uptake in Xenopus oocytes cells assessed as OATP1A2 (unknown origin)-mediated drug uptake; format: ADME, cell-based, Oocyte; conditions: Xenopus oocytes expressing OATP1A2
[4] = substrate: C[C@]12CC[C@@H]3c4ccc(OS(=O)(=O)O)cc4CC[C@H]3[C@@H]1CCC2=O; test: Cellular uptake in HEK293 cells assessed as bovine low affinity site of OATP1A2-mediated drug uptake at 0.01 to 50 uM after 1 min by Eadie-Hofstee plot analysis; format: ADME, cell-based, Bos taurus
[5] = substrate: C[C@]12CC[C@@H]3c4ccc(OS(=O)(=O)O)cc4CC[C@H]3[C@@H]1CCC2=O; test: Cellular uptake in HEK293 cells assessed as bovine high affinity site of OATP1A2-mediated drug uptake at 0.01 to 50 uM after 1 min by Eadie-Hofstee plot analysis; format: ADME, cell-based, Bos taurus

Molecule | Vmax [1] [pmol/mg/min] | Km at 1 min (OATP1A2 [2]) [µM] | Km (OATP1A2 [3]) [µM] | Km [4] [µM] | Vmax [4] [µmol/min/mg] | Km [5] [µM] | Vmax [5] [µmol/min/mg]
C[C@]12CC[C@@H]3c4ccc(OS(=O)(=O)O)cc4CC[C@H]3[C@@H]1CCC2=O [ESTRONE SULFURIC ACID] | 39.4 | 16.1 | 9.6 |  |  |  | 
B1 |  |  |  | 46.6 | 0.000375 | 0.25 | 2.45e-05

Source: ChEMBL document CHEMBL3525993, “Identification of multiple binding sites for substrate transport in bovine organic anion transporting polypeptide 1a2” (Drug Metab Dispos, 2013)
